Laboratory results reported in US20190105401A1.

Target: Hsp60 (chaperonin 60) of human Caco-2 cells (human) (UniProt P10809)
Assay: cell-based or functional assay

Sequence of Hsp60 (chaperonin 60) of human Caco-2 cells (human) (P10809 27-573): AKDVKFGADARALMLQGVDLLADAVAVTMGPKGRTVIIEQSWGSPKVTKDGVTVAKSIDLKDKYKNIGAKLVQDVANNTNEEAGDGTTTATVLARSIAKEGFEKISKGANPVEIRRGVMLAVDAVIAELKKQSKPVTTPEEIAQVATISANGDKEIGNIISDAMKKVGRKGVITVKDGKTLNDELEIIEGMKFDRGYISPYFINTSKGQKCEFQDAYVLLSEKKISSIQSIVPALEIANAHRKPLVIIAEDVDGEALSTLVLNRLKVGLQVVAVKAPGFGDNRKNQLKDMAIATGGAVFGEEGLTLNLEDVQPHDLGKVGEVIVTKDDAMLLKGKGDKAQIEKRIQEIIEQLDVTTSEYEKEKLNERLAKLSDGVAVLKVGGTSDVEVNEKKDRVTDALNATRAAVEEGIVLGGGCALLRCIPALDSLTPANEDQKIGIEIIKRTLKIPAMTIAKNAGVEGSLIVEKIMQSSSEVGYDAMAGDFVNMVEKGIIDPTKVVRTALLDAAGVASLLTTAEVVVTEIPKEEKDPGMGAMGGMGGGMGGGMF

Listeria adhesion protein (LAP) on L. monocytogenes F4244 (WT) bacteria (ligand)
IKK-β protein expression level, shRNA vector control Caco-2 cells infected with the WT strain, increase over uninfected: 54%
p65 protein expression level, shRNA vector control Caco-2 cells infected with the WT strain, increase over uninfected: 62%
